Test results from EP4644426A1 (Gan & Lee Pharmaceuticals Co., Ltd., dated 2025).
Like-named read-outs stand apart in the source and are kept apart here. Each block holds one molecule with its values, some of them ahead of it.

Columns and labels:
[1] = target: human FXIa factor (human) (UniProt P03951); test: cell-based or functional assay
[2] = target: human FXIa factor (human) (UniProt P03951); test: Biacore 8K (SPR), human FXIa in 2-fold dilution series
[3] = target: human FXIa factor (human) (UniProt P03951); test: cell-based or functional assay; remark: listed apart in the source
[4] = target: human FXIa factor (human) (UniProt P03951); test: cell-based or functional assay; remark: listed apart in the source
human FXIa factor [5] = target: T1, human FXIa factor (human, UniProt P03951 19-625); test: cell-based or functional assay
human FXIa factor [6] = target: T1, human FXIa factor; test: Biacore 8K (SPR), human FXIa in 2-fold dilution series
human FXIa factor [7] = target: T1, human FXIa factor; test: cell-based or functional assay; remark: listed apart in the source
human FXIa factor [8] = target: T1, human FXIa factor; test: cell-based or functional assay; remark: listed apart in the source
human FXIa factor [9] = target: T1, human FXIa factor; test: cell-based or functional assay; remark: listed apart in the source
human FXIa factor [10] = target: T1, human FXIa factor; test: cell-based or functional assay; remark: listed apart in the source
human FXIa factor [11] = target: T1, human FXIa factor; test: cell-based or functional assay; remark: listed apart in the source
human FXIa factor [12] = target: T1, human FXIa factor; test: cell-based or functional assay; remark: listed apart in the source

IC50(nM) from S2366 Assay [1]: 44.9 nM
Kd [2]: 0.00717 nM
koff [2]: 8.48e-06 s⁻¹
kon [2]: 1.18e+06 M⁻¹ s⁻¹
FXIa Kit Activity Assay (nM), IC50 (First Batch) [3]: 11.2 nM
FXIa Kit Activity Assay (nM), IC50 (Second Batch) [3]: 11.7 nM
FXIa Kit Activity Assay (nM), IC50 (Third Batch) [3]: 13.3 nM
FXIa kit Activity Assay (nM), IC50 [3]: 28.9 nM
IC50(nM) from S2366 Assay [3]: 67.3 nM
IC50(nM) from S2366 assay (First Batch) [3]: 118 nM
IC50(nM) from S2366 assay (Fourth Batch) [3]: 64.7 nM
IC50(nM) from S2366 assay (Second Batch) [3]: 83.6 nM
IC50(nM) from S2366 assay (Third Batch) [3]: 106 nM
OD405nm, S2366 activity assay, antibody at 20µg/mL [3]: 0.449 OD405nm
FXIa kit Activity Assay (nM), IC50 [4]: 12.7 nM
Molecule: MAA868 (antibody)

IC50(nM) from S2366 assay (Fourth Batch) (human FXIa factor [5]): 42.4 nM
B1: chimeric antibody 3B3 (antibody, V domains shown)
VH: EVQLEESGADLVRPGTSVKVSCKASGYAFTNYLIDWLKQRPGQGLEWIGVINPGSGITNYNEKFKGKATLTTDTSSSTAYMQLTNLTSDDSAVYFCARGDGTYYEDFLDYWGQGTSVTVSS
VL: DIVLTQTTSSIYTSLGERVTITCKASQDINSYLSWFQQRPGRSPKTLIYRANRLMDGVPSRFSGSGSGRDFSLTISSLDYEDMGIYYCLQYDEFPLTFGAGTKLELK

Kd (human FXIa factor [6]): 0.000809 nM
koff (human FXIa factor [6]): 1.05e-05 s⁻¹
kon (human FXIa factor [6]): 1.3e+07 M⁻¹ s⁻¹
IC50 (nM) from S2366 Assay (human FXIa factor [7]): 45.4 nM
FXIa kit Activity Assay (nM), IC50 (human FXIa factor [8]): 7.5 nM
B2: humanized antibody 14F3-1 (antibody, human IgG1, kappa, V domains shown)
VH: QVQLVQSGAEVKKPGASVKVSCKASGYTFTNYLIEWVRQAPGQGLEWMGVINPGSGYTNYNENFKDRVTMTRDTSISTAYMELSRLRSDDTAVYYCARTYGKYGGAMDFWGQGTTVTVSS
VL: DIVMTQSPDSLAVSLGERATINCKASQSVSNDVAWYQQKPGQPPKLLIYYISNRYTGVPDRFSGSGSGTDFTLTISSLQAEDVAVYYCQQDYSSPPTFGGGTKLEIKR
notes: To be verified

Kd (human FXIa factor [6]): 6.37 nM
koff (human FXIa factor [6]): 0.00411 s⁻¹
kon (human FXIa factor [6]): 645000 M⁻¹ s⁻¹
IC50 (nM) from S2366 Assay (human FXIa factor [7]): 226 nM
FXIa kit Activity Assay (nM), IC50 (human FXIa factor [8]): 32.5 nM
B3: Osocimab (antibody, V domains shown)
VH: EVQLLESGGGLVQPGGSLRLSCAASGFTFSQYGMDWVRQAPGKGLEWVSGIGPSGGSTVYADSVKGRFTISRDNSKNTLYLQMNSLRAEDTAVYYCTRGGPYYYYGMDVWGQGTTVTVSS
VL: DIQMTQSPSSLSASVGDRVTITCQASQDISNYLNWYQQKPGKAPKLLIYDASNLETGVPSRFSGSGSGTDFTFTISSLQPEDIATYYCQQADSFPVTFGGGTKVEIK

FXIa Kit Activity Assay (nM), IC50 (Second Batch) (human FXIa factor [9]): 0.781 nM
IC50(nM) from S2366 assay (Second Batch) (human FXIa factor [5]): 44.4 nM
B4: chimeric antibody 17E3C10 (antibody, V domains shown)
VH: QVKLQESGPELRKPGETVYISCKASGYTFTNYGVNWVKQAPGKGLKWMGWINTYTGEPIYADDFKGRFAFSLETSANTAYLQISNLTNEDTATYFCARLYLYGNTYDYYAMDYWGQGTSVTVSS
VL: DIVLTQTPSSMYASLGERVTITCKASQDISTYLSWFQQKPGKSPKTLIYRANRLIDGVPSRFSGSGSGQDFSLTISSLEYEDMGVYYCLQYDDLNTFGGGTKLEIK

OD405nm, S2366 activity assay, antibody at 20µg/mL (human FXIa factor [10]): 0.414 OD405nm
B5: 17E3C10-sy (antibody, V domains shown)
VH: B4 VH
VL: B4 VL

FXIa Kit Activity Assay (nM), IC50 (Second Batch) (human FXIa factor [9]): 1.31 nM
IC50(nM) from S2366 assay (Second Batch) (human FXIa factor [5]): 38.5 nM
B6: chimeric antibody 19C9C10 (antibody, V domains shown)
VH: EVKLEESGAELVKTGASVKLSCTASGFNIKDTYMHWVKQRPEQGLEWIGRIDPANDNTKYDPKFQGRATVTADTSSNTAYLQLISLTSEDTAVYYCAGDYDGYAMDYWGQGTSVTVSS
VL: DIVMTQTTSSLSVSLGGKVTITCKASQDINKYVAWFQHKPGKGPRLLMHYTSTLEPGIPSRFSGSGSGRDYSFTISNLEPEDIATYYCLQYDNLLTFGGGTKLEIK

OD405nm, S2366 activity assay, antibody at 20µg/mL (human FXIa factor [10]): 0.268 OD405nm
B7: 24B6-sy (antibody, V domains shown)
VH: EVQLQESGGDLVKPGGSLKLSCAASGFTFSSYGMSWVRQTPDKRLEWVATISSGGSFTYYPDSVKGRFTISRDNAKNTLYLQMSSLKSEDTAMYYCASLTSEGYAMEYWGQGTSVTVSS
VL: DIVLTQSPASLAVSLGQRATISCRASKSVSTSGYSHMHWYQQKLGQPPKLLIYLASNLESGVPARFSGSGSGTDFTLNIHPVEEEDAATYYCQHSRELPYTFGGGTKLEIK

FXIa Kit Activity Assay (nM), IC50 (First Batch) (human FXIa factor [9]): 6.7 nM
IC50(nM) from S2366 assay (First Batch) (human FXIa factor [5]): 122 nM
B8: chimeric antibody 24B6 (antibody, V domains shown)
VH: B7 VH
VL: B7 VL

FXIa Kit Activity Assay (nM), IC50 (Second Batch) (human FXIa factor [9]): 0.219 nM
IC50(nM) from S2366 assay (Second Batch) (human FXIa factor [5]): 34.9 nM
B9: chimeric antibody 29E10C4 (antibody, V domains shown)
VH: QVKLEESGAELVRPGTSVKVSCKASGYAFTDYFIEWIKQRPGQGLEWIGVINPGNDVTNYNEKFKGKATLTVDKSSTTAYMQLSSLTSDDSAVYFCTRSAGNYENSMDFWGQGTSVTVSS
VL: DIVLTQSPKFLLVSAGDRVTITCKASQSVSNDVGWYQQKPGQSPKLLIYYTSNRYTGVPDRFTGSGYGTDFTFTISSVQAEDLAVYFCQQDYHFPLTFGAGTKLELK

FXIa kit Activity Assay (nM), IC50 (human FXIa factor [11]): 0.248 nM
OD405nm, S2366 activity assay, antibody at 20µg/mL (human FXIa factor [10]): 0.198 OD405nm
B10: 29E10C4-sy (antibody, V domains shown)
VH: B9 VH
VL: B9 VL

FXIa Kit Activity Assay (nM), IC50 (First Batch) (human FXIa factor [9]): 7.77 nM
IC50(nM) from S2366 assay (First Batch) (human FXIa factor [5]): 78.7 nM
B11: chimeric antibody 14F3 (antibody, V domains shown)
VH: QVQLQQSGAELVRPGTSVTVSCKASGYAFSNYLIEWVNQRPGQGLEWIGVINPGSGYTNYNENFKDKATLTADTSSSTAYMQLSSLTSDDSAVYFCARTYGKYGGAMDFWGQGTSVTVSS
VL: DIVMTQTPKFLLVSAGDRVTITCKASQSVSNDVAWYQQKPGQSPKLLIYYISNRYTGVPDRFTGSGYGTDFTFTINTVQAEDLAVYFCQQDYSSPPTFGGGTKLEIK

OD405nm, S2366 activity assay, antibody at 20µg/mL (human FXIa factor [10]): 0.211 OD405nm
B12: 14F3-sy (antibody, V domains shown)
VH: B11 VH
VL: B11 VL

FXIa Kit Activity Assay (nM), IC50 (First Batch) (human FXIa factor [9]): 11.6 nM
B13: chimeric antibody 17E10 (antibody, V domains shown)
VH: EVQLEESGPGLVKPSQSLSLTCSVTGYSITSGFYWNWIRQFPGNKLEWMGYISFDGRHNYNPSLKNRFSITRDTSKNQFFLKLTSVTAEDTATYYCARDLITTVYYYPMDYWGQGTSVTVSS
VL: DIVMTQSHKFMSTSVGDRVSITCKASQDVGTAVDWYQQKTGQSPKLLIYWASTRHTGVPDRFTGSGSGTDFTLTISNVQSEDLADYFCQQYSNYPLTFGAGTKLELK

OD405nm, S2366 activity assay, antibody at 20µg/mL (human FXIa factor [10]): 0.189 OD405nm
B14: 17E10-sy (antibody, V domains shown)
VH: B13 VH
VL: B13 VL

Kd (human FXIa factor [6]): 0.00145 nM
koff (human FXIa factor [6]): 1.96e-05 s⁻¹
kon (human FXIa factor [6]): 1.35e+07 M⁻¹ s⁻¹
FXIa kit Activity Assay (nM), IC50 (human FXIa factor [11]): 0.545 nM
IC50 (nM) from S2366 Assay (human FXIa factor [12]): 24.5 nM
B15: humanized antibody 29E10C4-1 (antibody, human IgG1, kappa, V domains shown)
VH: QVQLVQSGAEVKKPGSSVKVSCKASGGTFSDYFIEWVRQAPGQGLEWMGVINPGNDVTNYNEKFKGRVTITADKSTSTAYMELSSLRSEDTAVYYCARSAGNYENSMDFWGQGTTVTVSS
VL: EIVLTQSPATLSLSPGERATLSCKASQSVSNDVGWYQQKPGQAPRLLIYYTSNRYTGIPARFSGSGSGTDFTLTISSLEPEDFAVYYCQQDYHFPLTFGGGTKVEIKR
notes: 29E10C4-1 is the only humanized form of that clone

FXIa Kit Activity Assay (nM), IC50 (Third Batch) (human FXIa factor [9]): 7.8 nM
IC50(nM) from S2366 assay (Third Batch) (human FXIa factor [5]): 93.1 nM
B16: chimeric antibody 11E8 (antibody, V domains shown)
VH: EVKLQESGPELVKTGASVKISCKASGYSFTGYFMNWVKQSHGKSLEWIGFINCYNGATSYNQKFKGKATFTVDASSSSAYMQFNSLTSEDSAVYYCARTISTGDSFDYWGQGSTLTVSS
VL: DIVMTQSTSYLSVSLGGRVTITCKASDHINNWLAWYQQKPGDAPSLLISGASRLETGVPSRFSGSGSGKDYTLSITSLQTEDVATYYCQQYWTTPFTFGSGTKLEIK

OD405nm, S2366 activity assay, antibody at 20µg/mL (human FXIa factor [10]): 0.294 OD405nm
B17: 11E8-sy (antibody, V domains shown)
VH: B16 VH
VL: B16 VL
